Reference: patent US20260216242A1, “ALPP-SPECIFIC VARIANT ANTIGEN BINDING MOLECULES” (ALMAC DISCOVERY LIMITED, priority 2022, published 2026)

T1: ALPI expressed on the surface of CHO cells (CHO-ALPI) (Homo sapiens, UniProt P09923)
T1 construct: expressed in transfected cells
T1 sequence (P09923 20-503 limits assumed): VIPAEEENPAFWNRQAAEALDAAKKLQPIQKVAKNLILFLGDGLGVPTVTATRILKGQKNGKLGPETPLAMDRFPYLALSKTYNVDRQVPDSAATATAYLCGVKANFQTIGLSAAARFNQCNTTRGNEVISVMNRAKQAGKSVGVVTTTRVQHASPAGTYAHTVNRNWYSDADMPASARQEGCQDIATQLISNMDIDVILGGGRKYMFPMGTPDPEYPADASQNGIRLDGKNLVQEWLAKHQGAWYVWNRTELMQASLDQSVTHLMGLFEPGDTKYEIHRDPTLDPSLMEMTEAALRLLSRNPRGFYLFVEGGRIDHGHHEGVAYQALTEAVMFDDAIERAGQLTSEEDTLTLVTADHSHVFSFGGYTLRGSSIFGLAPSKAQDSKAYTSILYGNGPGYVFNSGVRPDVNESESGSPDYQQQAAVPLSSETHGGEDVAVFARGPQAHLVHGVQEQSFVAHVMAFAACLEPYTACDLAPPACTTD

T2: ALPI His homodimer (Homo sapiens, UniProt P09923)
T2 sequence (P09923 with tags, fused parts or gaps): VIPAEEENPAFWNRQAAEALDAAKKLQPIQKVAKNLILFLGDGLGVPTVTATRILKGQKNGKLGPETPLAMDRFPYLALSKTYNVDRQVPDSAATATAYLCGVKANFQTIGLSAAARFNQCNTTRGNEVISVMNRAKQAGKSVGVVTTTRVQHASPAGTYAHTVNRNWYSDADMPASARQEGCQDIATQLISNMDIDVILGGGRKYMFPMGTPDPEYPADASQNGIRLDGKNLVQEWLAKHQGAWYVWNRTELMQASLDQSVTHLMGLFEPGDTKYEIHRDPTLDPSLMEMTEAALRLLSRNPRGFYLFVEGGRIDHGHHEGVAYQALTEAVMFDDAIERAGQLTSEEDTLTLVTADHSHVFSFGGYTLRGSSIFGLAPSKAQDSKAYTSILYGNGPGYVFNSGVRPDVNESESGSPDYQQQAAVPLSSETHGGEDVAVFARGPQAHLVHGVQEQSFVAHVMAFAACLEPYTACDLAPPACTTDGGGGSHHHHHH


Assays:
[1] = molecular target: T1, ALPI expressed on the surface of CHO cells (CHO-ALPI); experiment: Cell-surface binding by flow cytometry, CHO-ALPI; conditions: for KDapp CHO-ALPI: VHH His proteins, up to 350 nM; for KDapp CHO-ALPI / binding to ALPI on CHO cells (in words): flow cytometry; for ALPI MFI as % of the ALPP MFI: VHH His at 350 nM; for binding to ALPI on CHO cells (in words): VHH proteins
Protocol: C-terminal His tagged VHH proteins were assessed for ALPP, ALPPL2, ALPI and ALPL cell-surface binding by flow cytometry. Binders encompassing different epitope bins were screened on CHO cells stably expressing ALPP, ALPPL2, ALPI or ALPL. High levels of cell-surface proteins expression were confirmed for each of the cell-lines by flow cytometry.
Cell surface binding of test agents to hALPP isoforms was characterized in four CHO-ALPP isoform stably transfected cell lines (CHO-ALPP, CHO-ALPPL2, CHO-ALPI and CHO-ALPL) and the resulting KDapp values determined. Adherent cells were detached from tissue culture flasks by incubating with 0.1% EDTA/PBS solution at 37° C. for ~10 minutes or until cells detached easily. Cells were re-suspended in ice-cold PBS/2% FCS in 15 ml tubes and centrifuged at 1700 rpm for 5 mins at 4° C. Supernatant was removed and the cell pellet re-suspended in PBS/2% FCS. A cell count was performed using a Chemometec Nucleocounter NC-202 and 2.5×10^5 cells were aliquoted per test sample into a 96 well plate. Cells were incubated with 100 μl of test agents at a range of concentrations, plus controls for 1 hr on ice. The sample plate was centrifuged at 1700 rpm for 5 mins at 4° C. The supernatant was removed, and a wash performed by re-suspending the cell pellets in 0.25 mL of ice-cold PBS/2% FCS using a multichannel pipette. Samples were again centrifuged at 1700 rpm for 5 min at 4° C. Supernatant was removed and two further washes performed as described. After the final wash and centrifugation step, excess liquid was removed by blotting the plate on tissue paper. Binding of VHH (His6 tagged) agents was determined by adding 100 μl of anti-x6His tag Ab (Abcam) per cell pellet sample as appropriate and incubating on ice for 30 mins. Wash steps were performed as described previously. Fitc-anti-mouse antibody (ThermoFisher) was used to detect binding of the VHH (His6 tagged) agents by incubating with the appropriate samples for 30 min on ice in the dark. Wash steps were performed as described previously. All cell pellets were finally re-suspended in […] of ice-cold PBS/2% FCS and left on ice in the dark prior to analysis on a Merck-Millipore Guava EasyCyte HT or Thermo Fisher Attune N×T flow cytometer.
VHH-hFc proteins were assessed for human ALPP, ALPPL2, ALPI and ALPL cell-surface binding by flow cytometry. Binders were screened on CHO cells stably expressing human ALPP, ALPPL2, ALPI or ALPL.
Cell surface binding of test agents to hALPP isoforms was characterized in four CHO-ALPP isoform transfectant cell lines (CHO-ALPP, CHO-ALPPL2, CHO-ALPI and CHO-ALPL) and the resulting KDapp values determined. Adherent cells were detached from tissue culture flasks by incubating with 0.1% EDTA/PBS solution at 37° C. for ~10 minutes or until cells detached easily. Cells were re-suspended in ice-cold PBS/2% FCS in 15 ml tubes and centrifuged at 1700 rpm for 5 mins at 4° C. Supernatant was removed and the cell pellet re-suspended in PBS/2% FCS. A cell count was performed using a Chemometec Nucleocounter NC-202 and 2.5×10^5 cells were aliquoted per test sample into a 96 well plate. Cells were incubated with 100 μl of test agents at a range of concentrations, plus controls for 1 hr on ice. The sample plate was centrifuged at 1700 rpm for 5 mins at 4° C. The supernatant was removed, and a wash performed by re-suspending the cell pellets in 0.25 mL of ice-cold PBS/2% FCS using a multichannel pipette. Samples were again centrifuged at 1700 rpm for 5 min at 4° C. Supernatant was removed and two further washes performed as described. After the final wash and centrifugation step, excess liquid was removed by blotting the plate on tissue paper. Binding of VHH-hFc agents was determined by adding 100 μl of Fitc-anti-human Ab (ThermoFisher) and incubating for 30 mins on ice in the dark. Wash steps were performed as described previously. […]

ALPI His homodimer = molecular target: T2, ALPI His homodimer; experiment: ELISA binding to ALPI; conditions: 500 ng purified VHH
Protocol: ELISA was used to test the binding and specificity of the VHHs. ALPP CysHis (SEQ ID NO: 263), ALPI His homodimer (SEQ ID NO: 264) or BSA (Thermo Fisher) were coated onto plates and 500 ng of each purified VHH added. Anti-Llama—HRP antibody was used for detection.

[2] = Thermal stability (Protein Thermal Shift assay); format: physicochemical; conditions: VHH domains, first derivative analysis
Protocol: Thermal stability assays used Applied Biosystems StepOne Real Time PCR system with the Protein Thermal Shift™ dye kit (Thermo Fisher). The assay mix was set up so that the protein was at a final concentration of 20 µM in 20 μL. 5 μL of Thermal Shift™ buffer was added alongside 2.5 μL 8× Thermal Shift™ Dye. Assays were run using the StepOne software and data analysed using Protein Thermal Shift™ software. All data are from first derivative analysis.

| Molecule | KDapp CHO-ALPI [1] | ELISA hALPI (ALPI His homodimer) | ALPI MFI as % of the ALPP MFI [1] | binding to ALPI on CHO cells (in words) [1] | Tm [2] |
| --- | --- | --- | --- | --- | --- |
| D04: ALPP/ALPPL2 targeting VHH domain, SEQ ID NO: 26 (protein) VHH: QVQLVESGGGLVQPGGSLRLSCAASESTFSINVMGWYRQAPGKQRELVATITSGDITNYADSVKGRFTISRDNAENTVYLRTNSLKPEDTAVYYCNARGEYHSGNEYDYWGQGTQVTVSS | Minimal | No Binding | 9.5% | weak binding | 59.8 °C |
| B01: ALPP/ALPPL2 targeting VHH domain, SEQ ID NO: 20 (protein) VHH: QVQLVESGGGLVQAGGSLRLSCEVTRSPMPIDTMAWYRQAPGRQRELVAIISRSGSTNYADSVKGRFTISRNDTKSTMYKSTMYLKMNTLELEDTGVYYCNAVGLWNGAEYWGQGTQVTVSS | No binding | No Binding |  |  | 82.7 °C |
| A06: ALPP/ALPPL2 targeting VHH domain, SEQ ID NO: 17; tested C-terminally His-tagged (protein, C-terminal His tag, tested C-terminally His-tagged) VHH: QVHLVESGGGLVQAGGSLRLSCAASGRTFLSMGWFRQAPGKEREFVAAISWTGGSTGYADSVKGRFTISRESDKETMYLQMNSLKPEDTAVYYCAARGDVYYGGDDATRYKYWGQGTQVTVSS | No binding | No Binding |  |  | 73.2 °C |
| A05: ALPP/ALPPL2 targeting VHH domain, SEQ ID NO: 16; tested C-terminally His-tagged (protein, C-terminal His tag, tested C-terminally His-tagged) VHH: QVQLVESGGGLVQAGASLTLSCAASGFTFNTRSIVWFRQAPGKEREAVSCISKVAGSTYYGDSVQGRFSSSTDNAKNTVSLQMNSLKPEDTAVYTCAASFAPNCYGWSVAANMEYWGEGTMVTVSS | No binding | No Binding |  |  | 69.5 °C |
| F05: ALPP/ALPPL2 targeting VHH domain, SEQ ID NO: 34 (protein) VHH: QVQLVESGGGLVQAGGSLRLSCAASGRAFGDYNIGWFRQAPGKEREFVARRTWDGSSTRYDDSVKGRFTVSIDNAKNTAYLQMNSLKTEDTAVYYCAAGRYSRVRGWEYDYWGQGTQVTVSS | No binding | No Binding |  |  | 70.6 °C |

Continued, in another order:

| KDapp CHO-ALPI [1] | ELISA hALPI (ALPI His homodimer) | ALPI MFI as % of the ALPP MFI [1] | binding to ALPI on CHO cells (in words) [1] | Molecule | Tm [2] |
| --- | --- | --- | --- | --- | --- |
| No binding | No Binding |  |  | E06: ALPP/ALPPL2 targeting VHH domain, SEQ ID NO: 30 (protein) VHH: QVHLVESGGGLVQAGGSLRLSCAASRRSFSEYAMGWFRQAPGKEREFVAAIGWSGVIEYADSVKGRFTISRDNAKDTVYLQMNSLKPEDTAVYYCAAGLGIRVVSQTPAYWGQGTQVTVSS | 81.1 °C |
| Minimal | No Binding | 1.3% | minimal binding | F08: ALPP/ALPPL2 targeting VHH domain, SEQ ID NO: 35 (protein) VHH: QVQLVESGGGSVQAGGSLRLSCAASGPSLSNYAMGWFRQAPGKEREFVAGISWGGGRTSYTDSVKGRFTISRDNAKNTVYLQMNNLKPEDTGVYYCAGRYGRGRNVEYEYDYWGQGTQVTVSS | 77.6 °C |
| No binding | No Binding |  |  | D10: ALPP targeting VHH domain, SEQ ID NO: 28 (protein) VHH: QVQLVESGGGLVQPGGSLRLSCAASGSIFSVNTMGWYRQAPGKQRDLVAVATSGGTIHYADSVKGRFTISRDNAKNTVYLQMNSLKPEDTAVYYCNLVVPYGMIAGDHDYWGQGTKVTVSS | 69.9 °C |
| No binding | No Binding |  |  | E10: ALPP/ALPPL2 targeting VHH domain, SEQ ID NO: 31 (protein) VHH: QVQLVESGGGLVQAGGSLRLSCAVSGRALSDYNIGWFRQAPGKEREFVARKTWDGSSTRYDDSVKGRFTVSIEDAKNTAYLQMSSLKTEDTAVYYCAAGRYSRARGWEYDYWGQGTQVTVSS | 71.8 °C |
| No binding | No Binding |  |  | C07: ALPP/ALPPL2 targeting VHH domain, SEQ ID NO: 25 (protein) VHH: QVQLVESGGGLVQAGESLRLACAASGTIFSGNAVGWYRQAPEKQREWVSSITDYGDTDYAEAVKGRFTISRDNAKNTVYLQMNSLKPEDTAVYYCYVYQRGESEEYWGQGTQVTVSS | 70.7 °C |
